In test [1] the target is active human C1s purified from human serum (CompTech, Tyler, TX, catalog number A104) (human) (UniProt P09871). As to the kind of experiment: SPR.
Test [2] deals with recombinant human ProC1s with Arg437 mutated to glutamine (hProC1s_RQ), C-terminal spacer and 10 histidines (human). Nature of the test: SPR. For orientation: Surface plasmon resonance follows binding to a sensor surface in real time, without labels.
Sequence of recombinant human ProC1s with Arg437 mutated to glutamine (hProC1s_RQ), C-terminal spacer and 10 histidines (human) (chain, as listed by the source limits assumed, change not shown, form in doubt): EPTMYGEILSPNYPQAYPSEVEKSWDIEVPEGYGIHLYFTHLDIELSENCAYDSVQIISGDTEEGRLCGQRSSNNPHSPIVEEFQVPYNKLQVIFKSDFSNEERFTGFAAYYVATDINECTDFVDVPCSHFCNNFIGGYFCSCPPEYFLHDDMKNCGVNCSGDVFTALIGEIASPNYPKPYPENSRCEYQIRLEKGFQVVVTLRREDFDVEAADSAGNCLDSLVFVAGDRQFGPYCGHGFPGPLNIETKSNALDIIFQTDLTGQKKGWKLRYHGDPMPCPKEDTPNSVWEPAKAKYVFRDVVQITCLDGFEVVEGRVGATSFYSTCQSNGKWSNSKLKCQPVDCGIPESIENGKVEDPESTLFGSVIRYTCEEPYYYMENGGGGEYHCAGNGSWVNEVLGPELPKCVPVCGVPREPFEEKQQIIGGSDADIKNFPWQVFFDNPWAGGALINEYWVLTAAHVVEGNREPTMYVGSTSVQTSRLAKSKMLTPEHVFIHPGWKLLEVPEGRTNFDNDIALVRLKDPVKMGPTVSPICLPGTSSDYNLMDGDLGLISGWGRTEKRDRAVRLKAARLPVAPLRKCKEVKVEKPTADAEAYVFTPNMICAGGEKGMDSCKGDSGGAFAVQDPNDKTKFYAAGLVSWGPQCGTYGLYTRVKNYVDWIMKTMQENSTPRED

Sequence of active human C1s purified from human serum (CompTech, Tyler, TX, catalog number A104) (human) (P09871 16-437, chain 1 of 2): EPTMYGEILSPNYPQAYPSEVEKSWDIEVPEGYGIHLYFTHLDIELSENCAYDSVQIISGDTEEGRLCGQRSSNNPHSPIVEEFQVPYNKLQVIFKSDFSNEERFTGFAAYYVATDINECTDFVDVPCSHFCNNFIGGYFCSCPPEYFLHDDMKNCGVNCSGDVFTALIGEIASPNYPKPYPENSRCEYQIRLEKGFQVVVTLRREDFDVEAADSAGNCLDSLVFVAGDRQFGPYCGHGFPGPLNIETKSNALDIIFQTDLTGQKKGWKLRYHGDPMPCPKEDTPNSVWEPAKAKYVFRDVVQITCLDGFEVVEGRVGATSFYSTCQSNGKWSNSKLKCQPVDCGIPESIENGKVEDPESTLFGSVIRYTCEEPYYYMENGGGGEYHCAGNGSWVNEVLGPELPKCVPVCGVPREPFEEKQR
Sequence of active human C1s purified from human serum (CompTech, Tyler, TX, catalog number A104) (human) (P09871 438-688, chain 2 of 2): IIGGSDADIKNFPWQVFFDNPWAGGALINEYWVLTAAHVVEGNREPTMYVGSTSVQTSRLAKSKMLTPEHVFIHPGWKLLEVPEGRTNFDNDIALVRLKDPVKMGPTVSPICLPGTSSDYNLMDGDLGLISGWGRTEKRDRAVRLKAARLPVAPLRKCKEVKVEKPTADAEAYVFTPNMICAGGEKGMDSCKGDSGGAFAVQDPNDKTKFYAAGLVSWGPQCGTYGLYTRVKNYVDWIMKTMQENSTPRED

On to “recombinant sutimlimab/BIVV009/TNT009 (antibody)”, for which the results for the Kd in test [1] and in test [2] were 0.25 nM and 0.4 nM, respectively.

The term Kd denotes the concentration at which binding is half-saturated.

The values are drawn from US20250188188A1.
